Reference: publication PMC7293044

Target: T1, Edc3 (UniProt P39998 1-551)
T1 sequence: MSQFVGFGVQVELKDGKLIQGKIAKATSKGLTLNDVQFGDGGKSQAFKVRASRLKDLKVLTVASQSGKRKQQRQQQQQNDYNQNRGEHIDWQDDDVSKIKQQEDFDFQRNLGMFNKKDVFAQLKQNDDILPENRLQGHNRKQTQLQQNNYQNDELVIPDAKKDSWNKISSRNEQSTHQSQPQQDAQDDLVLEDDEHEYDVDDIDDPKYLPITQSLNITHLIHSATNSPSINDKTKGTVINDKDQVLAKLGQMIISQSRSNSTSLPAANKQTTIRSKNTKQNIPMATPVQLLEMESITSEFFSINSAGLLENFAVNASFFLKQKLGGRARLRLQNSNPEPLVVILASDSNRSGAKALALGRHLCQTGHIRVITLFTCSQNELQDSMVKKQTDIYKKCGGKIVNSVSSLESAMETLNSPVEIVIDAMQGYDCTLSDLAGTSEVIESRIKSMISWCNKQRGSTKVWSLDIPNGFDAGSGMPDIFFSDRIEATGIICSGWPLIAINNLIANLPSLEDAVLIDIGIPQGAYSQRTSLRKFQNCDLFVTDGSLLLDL
Assay: EMSA

B1: RPS28B 3'UTR stem-loop 60mer (WT) (structured_RNA)
RNA: AUUUUUCAAAAAAUGAAUUAAAUGAUUGAAGUCACUUAAUUUUUGUGGUUUUUUGGAGGU
B1 was tested, and the Kd was 2.55 µM.
